“And” between values parts separate entries of the source, which are not always exact repeats. Equal entries are not always repeated. * marks the point of attachment. Bz = O=C(c1ccccc1)*
Columns and labels:
[1] = Cysteine challenge stability of ^99mTc chelator peptides; assay type: physicochemical; settings: N1-N2-Cys triamide thiol chelators; for % Peptide Complexed to ^99mTc Initial: 150 μg cysteine, room temperature, Initial (within 5 minutes); for % Peptide Complexed to ^99mTc 2 h / % Peptide Complexed to ^99mTc 4 h / % Peptide Complexed to ^99mTc 6 h / % Peptide Complexed to ^99mTc 8 h / % Peptide Complexed to ^99mTc 10 h / % Peptide Complexed to ^99mTc 12 h: cysteine challenge
Protocol: For the ^99mTc radiolabeling, a peptide as the TFA salt was dissolved in saline at 1 mg/mL and 100 μg (100 μL) was added to a ^99mTc placebo vial. The vial was reconstituted with 0.9 mL technetium ^99mTc sodium pertechnetate containing approximately 20 mCi and saline such that the final preparation volume was 1.1 mL. The vial was heated in a boiling water bath for 10 minutes and cooled at room temperature for 10 minutes.
(§1) The radiochemical purity (RCP) of the ^99mTc or ^188Re peptides was measured by gradient reversed phase HPLC using a Eurosphere-100 C18 HPLC column and 0.1% TFA mobile phases moderated with acetonitrile. Radioactive components were detected in the HPLC system using an in-line radiometric detector. Under the gradient conditions employed radiolabeled impurities (for example: ^99mTc glucoheptonate, ^99mTc edetate, and ^99mTc pertechnetate) eluted early (between 1 and 4 minutes), while the radiolabeled peptides eluted much later (between 8 and 20 minutes). In general, two isomeric radiometal complexes were observed, and the HPLC RCP was measured as the sum of the percent areas of the peaks corresponding to the two complexes. Radiochemical purity results for each of compounds are summarized in the examples that follow.
(§2) To ^99mTc radiolabelled peptide preparations described in Example 3 was added 150 μg of cysteine (approximately a 7-fold molar excess over peptide), and the preparations were stored at room temperature and monitored by HPLC for up to 12 hours. The amount of ^99mTc cysteine formed over time was noted. The initial HPLC analysis was started within 5 minutes of adding cysteine. In all cysteine challenge studies, a chelator compound containing a stabilizing sidechain was screened vs. the corresponding control chelator compound containing no sidechain. The relative amount of ^99mTc cysteine formed over time correlates inversely with the stability of the chelator (ie. less ^99mTc cysteine indicates higher chelator stability).
Several model chelator peptides were prepared with an N^1—N^2-Cys (N^1, N^2=independently any amino acid) amino acid sequence capable of complexing technetium as a triamide thiol chelator. Various stabilizing sidechains were substituted into the N^1—N^2-Cys chelator in two positions R1 and R2 as depicted in FIG. 4. The compounds were screened in the cysteine challenge experiment described in Example 4. Several experiments were conducted where 1-2 chelators were compared directly to a control chelator containing no stabilizing sidechain (compound GoC1 was also analyzed alone in a further study). Results in Table 5 represent % Peptide complexed to ^99mTc (ie. 100%−the amount of ^99mTc cysteine) vs. time.
Several model chelator peptides were prepared with an (β)Dap-N^2-Cys (N^2=any amino acid) amino acid sequence capable of complexing technetium as an amine diamide thiol chelator. This chelator is the chelator in the somatostatin peptides that were evaluated in Examples 5 and 6. Various stabilizing sidechains were substituted into the (β)Dap-N^2-Cys chelator in two positions R3 and R4 as depicted in FIG. 5. The compounds were screened in the cysteine challenge experiment described in Example 4. Several experiments were conducted where 1-2 chelators were compared directly to a control chelator containing no stabilizing sidechain. Results in Table 6 are the same as described in Example 7.
Two model chelator peptides were prepared with a ma-N^1—N^2 (Ma=mercaptoacetyl; N^1, N^2=independently any amino acid) amino acid sequence capable of complexing technetium as a triamide thiol chelator. This chelator has the thiol donor group at the N-terminus of the peptide. A stabilizing sidechain was substituted into the ma-N^1—N^2 chelator in position R5 as depicted in FIG. 6. The compounds were radiolabeled according to Example 3 with the exception that additional NaOH was added to bring the pH of the preparation up to pH 8.5. […]

[2] = Cysteine challenge stability of ^188Re chelator peptides; assay type: physicochemical; settings: radiolabeled with ^188Re
Protocol: For the ^188Re radiolabeling, a peptide as the TFA salt was dissolved in saline at 1 mg/mL and 100 μg (100 μL) was added to a ^188Re placebo vial. To the vial was added 100 μg stannous chloride dihydrate. The vial was reconstituted with 0.9 mL rhenium ^188Re sodium perrhenate containing approximately 20 mCi and saline such that the final preparation volume was 1.5 mL. The vial was heated in a boiling water bath for 15 minutes and cooled at room temperature for 10 minutes. Finally 1 mL of an antioxidant stabilizer solution containing 10 mg gentisic acid sodium salt monohydrate and 20 mg ascorbic acid was added to the vial.
as §1, §2
Some of the N^1—N^2-Cys (N^1, N^2=independently any amino acid) model chelator peptides described in Example 7 were radiolabeled with ^188Re and screened in the cysteine challenge experiment described in Example 4. Two chelators (See FIG. 4) were compared directly to the control chelator containing no stabilizing sidechain. In these studies, the products were monitored for 6 hours. Results in Table 8 represent % Peptide complexed to ^188Re (ie. 100%−the amount of ^188Re cysteine) vs. time.

Row | Substance | % Peptide Complexed to ^99mTc Initial [1] | % Peptide Complexed to ^99mTc 2 h [1] | % Peptide Complexed to ^99mTc 4 h [1] | % Peptide Complexed to ^99mTc 6 h [1] | % Peptide Complexed to ^99mTc 8 h [1] | % Peptide Complexed to ^99mTc 10 h [1] | % Peptide Complexed to ^99mTc 12 h [1] | % Peptide Complexed to ^188Re ([2]; 1.5 h) [%] | % Peptide Complexed to ^188Re ([2]; 3 h) [%] | % Peptide Complexed to ^188Re ([2]; 4.5 h) [%] | % Peptide Complexed to ^188Re ([2]; 6 h) [%] | % Peptide Complexed to ^188Re ([2]; N1-N2-Cys chelators, Initial) [%]
1 | Bz-Gly-Gly-Gly-Cys-Ala.amide (Bz-GGGCA-NH2; SMILES C[C@H](NC(=O)[C@H](CS)NC(=O)CNC(=O)CNC(=O)CNC(=O)c1ccccc1)C(N)=O) [GGC1, control chelator, no stabilizing sidechain] | 98.2% and 98.8% and 96.9% | 83.4% and 83.6% and 85.2% | 83.5% and 74.0% and 71.7% | 74.3% and 72.0% | 69.8% and 68.3% and 61.7% | 57.9% and 65.0% and 60.0% | 60.7% and 49.7% | 80.1 | 61.4 | 50.2 | 47.7 | 100
2 | Bz-Gly-Gly-Glu-Cys-Ala.amide (Bz-GGECA-NH2; SMILES C[C@H](NC(=O)[C@H](CS)NC(=O)[C@H](CCC(=O)O)NC(=O)CNC(=O)CNC(=O)c1ccccc1)C(N)=O) | 100% | 88.9% | 84.5% | 80.3% | 75.7% | 74.1% | 69.0% | 94.0 | 90.5 | 89.7 | 90.2 | 98.0
